This note sets out measurements from the supplement of paper PMC7125110.

± gives the standard error. For some assays here: Variants at the floor of the assay were thinned out.

Sequences and labels used below:
B1: glmS ribozyme (parent)
chain: AUAAAAGCGCCAGAACUACAGAAAUGUAGUUGACGAGGAGGAGGUUUAUCGAAUUUUCGGCGGAUGCCUCCAAA

Details in all cases: with glucosamine-6-phosphate
The variants in series [1] derive from B1. In words: kcat; higher = faster cleavage; RNA array. The method, boiled down: (§1)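 Glucosamine-6-phosphate, from 40 μM to 10 mM in HEPES/KCl/Mg(OAc)2 buffer, was flowed over sequenced MiSeq chips carrying barcoded ribozyme variants transcribed in situ by E. coli RNA polymerase. A hybridised Cy3 probe tracked the variants at 37 °C as tiles were imaged over ~14 h. kobs, kcat and KM were obtained by fitting normalised per-tile medians to exponential decays and then applying weighted Michaelis–Menten fits across concentrations.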

In series [2] the parent is B1. In words: KM; higher = weaker cofactor use; RNA array. The method, boiled down: as §1
The variants in series [3] derive from B1. The series is described as follows: self-cleavage kobs at 640 uM GlcN6P; higher = faster cleavage; RNA array. The method, boiled down: as §1
The variants in series [4] derive from B1. The series is described as follows: self-cleavage kobs at 2500 uM GlcN6P; higher = faster cleavage; RNA array. The method, boiled down: as §1
In series [5] the parent is B1. The series is described as follows: self-cleavage kobs at 10000 uM GlcN6P; higher = faster cleavage; RNA array. The method, boiled down: as §1
In series [6] the parent is B1. In words: self-cleavage kobs at 40 uM GlcN6P; higher = faster cleavage; RNA array. In a few lines:
as §1

In series [7] the parent is B1. The series is described as follows: self-cleavage kobs at 160 uM GlcN6P; higher = faster cleavage; RNA array. The method, boiled down: as §1

Broadly, the kcat is the maximal rate divided by the concentration of active sites. As usually defined, the KM is the concentration of substrate that gives half-maximal velocity. In the case of G29U A52G, in the series with glucosamine-6-phosphate [1], the kcat was 0.00036 ± 7.1e-05 s⁻¹. Besides, the KM with glucosamine-6-phosphate [2] was determined as 3340 ± 1200 µM. In the series with glucosamine-6-phosphate [3], the “self-cleavage kobs at 640 uM GlcN6P” value stood at 6.73e-05 ± 9.7e-06 s⁻¹. Further, the “self-cleavage kobs at 2500 uM GlcN6P” value in the series with glucosamine-6-phosphate [4] came to 0.000127 ± 2e-05 s⁻¹. The “self-cleavage kobs at 10000 uM GlcN6P” value in the series with glucosamine-6-phosphate [5] is 0.00029 ± 3.3e-05 s⁻¹.
On to C8U G51U C70U, for which, in the series with glucosamine-6-phosphate [1], the kcat came to 1.2e-05 ± 2.2e-06 s⁻¹. In the series with glucosamine-6-phosphate [6], the “self-cleavage kobs at 40 uM GlcN6P” value was < 1e-05 s⁻¹.
For C61A U69G the same measures were < 1e-05 s⁻¹ and < 1e-05 s⁻¹.
For A6C C61A, the kcat in the series with glucosamine-6-phosphate [1] was < 1e-05 s⁻¹. In addition, the “self-cleavage kobs at 40 uM GlcN6P” value with glucosamine-6-phosphate [6] was < 1e-05 s⁻¹. The “self-cleavage kobs at 10000 uM GlcN6P” value with glucosamine-6-phosphate [5] is < 1e-05 s⁻¹.
A52G C70G: the kcat in the series with glucosamine-6-phosphate [1] was found to be 6.89e-05 ± 3.6e-06 s⁻¹. For the same variant, the KM with glucosamine-6-phosphate [2] stood at 65.2 ± 26 µM. The “self-cleavage kobs at 160 uM GlcN6P” value with glucosamine-6-phosphate [7] came to 5.53e-05 ± 1e-05 s⁻¹. Besides, the “self-cleavage kobs at 640 uM GlcN6P” value in the series with glucosamine-6-phosphate [3] amounted to 5.76e-05 ± 1.2e-05 s⁻¹. The “self-cleavage kobs at 2500 uM GlcN6P” value with glucosamine-6-phosphate [4] is 6.23e-05 ± 7.9e-06 s⁻¹. The “self-cleavage kobs at 10000 uM GlcN6P” value with glucosamine-6-phosphate [5] is 7.2e-05 ± 6.7e-06 s⁻¹.
Turning to C16G U55G, the kcat with glucosamine-6-phosphate [1] amounted to 0.0033 ± 0.0015 s⁻¹. In the series with glucosamine-6-phosphate [6], the “self-cleavage kobs at 40 uM GlcN6P” value came to 0.000147 ± 2.3e-05 s⁻¹. Also, the “self-cleavage kobs at 160 uM GlcN6P” value with glucosamine-6-phosphate [7] was determined as 0.000227 ± 5.1e-05 s⁻¹. For the same variant, the “self-cleavage kobs at 640 uM GlcN6P” value with glucosamine-6-phosphate [3] is 0.000789 ± 0.00012 s⁻¹. The “self-cleavage kobs at 2500 uM GlcN6P” value with glucosamine-6-phosphate [4] turned out to be 0.00148 ± 0.00031 s⁻¹. In the series with glucosamine-6-phosphate [5], the “self-cleavage kobs at 10000 uM GlcN6P” value came to 0.00368 ± 0.00057 s⁻¹.
Turning to A64G C70G, the kcat in the series with glucosamine-6-phosphate [1] stood at 5.51e-05 ± 2.1e-06 s⁻¹. Also, the KM with glucosamine-6-phosphate [2] was found to be 224 ± 79 µM. The “self-cleavage kobs at 40 uM GlcN6P” value with glucosamine-6-phosphate [6] was < 1e-05 s⁻¹. The “self-cleavage kobs at 640 uM GlcN6P” value with glucosamine-6-phosphate [3] was found to be 4.33e-05 ± 1.6e-05 s⁻¹. For the same variant, the “self-cleavage kobs at 10000 uM GlcN6P” value with glucosamine-6-phosphate [5] amounted to 5.41e-05 ± 8.6e-06 s⁻¹.
For C11A C61A, the kcat with glucosamine-6-phosphate [1] is < 1e-05 s⁻¹.
A53G A64C: the kcat in the series with glucosamine-6-phosphate [1] amounted to 0.000207 ± 2.2e-05 s⁻¹. For the same variant, the KM with glucosamine-6-phosphate [2] was determined as 1870 ± 470 µM. In the series with glucosamine-6-phosphate [3], the “self-cleavage kobs at 640 uM GlcN6P” value turned out to be 5.95e-05 ± 9.6e-06 s⁻¹. Also, the “self-cleavage kobs at 2500 uM GlcN6P” value with glucosamine-6-phosphate [4] turned out to be 0.000109 ± 1.4e-05 s⁻¹. Moreover, the “self-cleavage kobs at 10000 uM GlcN6P” value with glucosamine-6-phosphate [5] was 0.000181 ± 1.9e-05 s⁻¹.
On to U57A C68A, for which, in the series with glucosamine-6-phosphate [1], the kcat stood at 2.64e-05 ± 5.2e-06 s⁻¹.
As for U45G U65G, the kcat with glucosamine-6-phosphate [1] came to 0.00365 ± 0.0011 s⁻¹. Moreover, the KM with glucosamine-6-phosphate [2] stood at 2200 ± 1000 µM. The “self-cleavage kobs at 40 uM GlcN6P” value in the series with glucosamine-6-phosphate [6] stood at 7.22e-05 ± 2.1e-05 s⁻¹. The “self-cleavage kobs at 640 uM GlcN6P” value with glucosamine-6-phosphate [3] worked out at 0.000639 ± 0.00024 s⁻¹. Also, in the series with glucosamine-6-phosphate [4], the “self-cleavage kobs at 2500 uM GlcN6P” value came out at 0.00296 ± 0.00091 s⁻¹. Moreover, the “self-cleavage kobs at 10000 uM GlcN6P” value with glucosamine-6-phosphate [5] is 0.00282 ± 0.00077 s⁻¹.
For the variant G29C A39G, the kcat with glucosamine-6-phosphate [1] came to 0.00594 ± 0.0022 s⁻¹. The “self-cleavage kobs at 40 uM GlcN6P” value with glucosamine-6-phosphate [6] was determined as 0.000107 ± 1.2e-05 s⁻¹. The “self-cleavage kobs at 160 uM GlcN6P” value in the series with glucosamine-6-phosphate [7] was determined as 0.000305 ± 6.8e-05 s⁻¹. In the series with glucosamine-6-phosphate [3], the “self-cleavage kobs at 640 uM GlcN6P” value was 0.000768 ± 0.00012 s⁻¹. In addition, in the series with glucosamine-6-phosphate [4], the “self-cleavage kobs at 2500 uM GlcN6P” value turned out to be 0.00223 ± 0.00037 s⁻¹. For the same variant, the “self-cleavage kobs at 10000 uM GlcN6P” value with glucosamine-6-phosphate [5] was 0.00525 ± 0.00064 s⁻¹.
As for A15U G66U, the kcat with glucosamine-6-phosphate [1] was determined as 0.000139 ± 1.2e-05 s⁻¹. Also, the KM in the series with glucosamine-6-phosphate [2] amounted to 717 ± 180 µM. Also, the “self-cleavage kobs at 640 uM GlcN6P” value with glucosamine-6-phosphate [3] was 6.31e-05 ± 9.8e-06 s⁻¹. In addition, the “self-cleavage kobs at 2500 uM GlcN6P” value in the series with glucosamine-6-phosphate [4] was 0.000153 ± 4.4e-05 s⁻¹. Moreover, the “self-cleavage kobs at 10000 uM GlcN6P” value with glucosamine-6-phosphate [5] worked out at 0.000127 ± 1.5e-05 s⁻¹.
Consider U69A C71G, for which the kcat in the series with glucosamine-6-phosphate [1] is 3.77e-05 ± 9.7e-06 s⁻¹. Moreover, the “self-cleavage kobs at 640 uM GlcN6P” value with glucosamine-6-phosphate [3] was 5.27e-05 ± 1.5e-05 s⁻¹. The “self-cleavage kobs at 2500 uM GlcN6P” value with glucosamine-6-phosphate [4] is 4.01e-05 ± 9.2e-06 s⁻¹.
Take G32A G37A: in the series with glucosamine-6-phosphate [1], the kcat turned out to be 0.00051 ± 0.00011 s⁻¹. Moreover, in the series with glucosamine-6-phosphate [4], the “self-cleavage kobs at 2500 uM GlcN6P” value came out at 4.62e-05 ± 1e-05 s⁻¹. The “self-cleavage kobs at 10000 uM GlcN6P” value with glucosamine-6-phosphate [5] came to 0.000143 ± 1.8e-05 s⁻¹.
Turning to G32U, the kcat with glucosamine-6-phosphate [1] turned out to be 0.00158 ± 5.1e-05 s⁻¹. The KM in the series with glucosamine-6-phosphate [2] was 5150 ± 240 µM. For the same variant, the “self-cleavage kobs at 40 uM GlcN6P” value with glucosamine-6-phosphate [6] was determined as 1.52e-05 ± 1.4e-06 s⁻¹. Further, the “self-cleavage kobs at 160 uM GlcN6P” value with glucosamine-6-phosphate [7] came out at 4.88e-05 ± 1.7e-06 s⁻¹. Moreover, in the series with glucosamine-6-phosphate [3], the “self-cleavage kobs at 640 uM GlcN6P” value was determined as 0.000173 ± 2.7e-06 s⁻¹. For the same variant, the “self-cleavage kobs at 2500 uM GlcN6P” value with glucosamine-6-phosphate [4] stood at 0.000508 ± 1e-05 s⁻¹. Besides, the “self-cleavage kobs at 10000 uM GlcN6P” value in the series with glucosamine-6-phosphate [5] stood at 0.00104 ± 1.4e-05 s⁻¹.
As for G66C C68U, the kcat with glucosamine-6-phosphate [1] was 0.00021 ± 1.1e-05 s⁻¹. Also, the KM with glucosamine-6-phosphate [2] was determined as 1890 ± 220 µM. Moreover, the “self-cleavage kobs at 640 uM GlcN6P” value with glucosamine-6-phosphate [3] is 5.11e-05 ± 1e-05 s⁻¹. Also, the “self-cleavage kobs at 2500 uM GlcN6P” value in the series with glucosamine-6-phosphate [4] came out at 0.000132 ± 2.7e-05 s⁻¹. Further, the “self-cleavage kobs at 10000 uM GlcN6P” value with glucosamine-6-phosphate [5] stood at 0.000173 ± 2.3e-05 s⁻¹.
